Experimental data as given in the Human Domainome abundance scans (Beltran et al. 2025).

B1: Transcription elongation factor A N-terminal and central domain-containing protein, residues 30 to 77; numbered along this chain, Q8N8B7 (parent)
chain: LTELETIYVTKEHLQETDVVRAVYRVLKNCPSVALKKKAKCLLSKWKA
B2: Chromodomain-helicase-DNA-binding protein 4, residues 365 to 417; numbered along this chain, Q14839 (parent)
chain: YETDHQDYCEVCQQGGEIILCDTCPRAYHMVCLDPDMEKAPEGKWSCPHCEKE

Variants of: B1
Assay: abundance fitness (aPCA) (normalised: wild type 0, dead -1); higher = more abundant; growth selection in yeast, the domain comes from the species named
Conditions: Homo sapiens

Abundance fitness: each site, then its substitutions
A39: C 0.072; Y -0.452; V 0.096; N -0.61; D -0.826; I 0.2; R -0.968; K -0.883; L -0.089; S -0.745; E -0.972; T -0.512; G -0.576; H -0.553; M -0.016
K38: Y -0.265; W -0.252
K45: T -0.656; E -0.748; C -0.352; D -0.443; I -1.01; Y -0.1; M -0.63; L -0.513; A -0.57; G -0.894; Q -0.782; S -0.55; P -0.667; N -0.361; F 0.204; R -0.123; V -0.918
A48: W -0.469; H -0.331; T 0.162; P -0.565; R 0.034; L -1.22; V -0.62
K47: T -0.351; N -0.625; Q -0.46; P -0.334; V 0.019; M -0.252; F 0.101; D -0.762; I -0.47; R -0.431; E -1.08; A -0.739; L -0.508; W 0.025; G -0.605; S -0.967; H -0.268
C41: G 0.025; T -0.073; M -0.232; K 0.171; L 0.047; V 0.042; R 0.167; P -1.22; F 0.005; Y -0.558; N 0.268; H 0.239; I -0.202; Q 0.293; D -0.182; E 0.019; S 0.093
S44: C -0.73; M -0.148; N -0.351; D -0.537; F -0.158; W -0.237; H 0.079; R 0.021; G -0.141; V -0.48; K -0.312; E -0.262; I -0.695; P -0.891; Y -0.398; A -0.232
L42: K -1.13; F -0.174; C -0.839; T -0.703; V -0.354; Y -0.737; I -0.283; D -0.894; H -1.02; G -1.05; A -0.689; P -1.01; M -0.203; Q -0.791; N -0.871; W -0.026; E -0.993; S -0.77
L43: S -1.04; P -0.789; G -1.12; W 0.127; K -1.04; D -0.829; Y -0.256; M -0.138; V -0.272; T -1.05; R -0.889; F 0.047; Q -0.527; E -0.915; C -0.647; A -0.787
W46: Q -0.792; T -0.705; S -0.96; P -0.765; Y -0.504; G -1.07; R -0.758; C -0.313; D -1.05; N -0.823; V -0.035; A 0.105; I 0.258; L 0.022; E -1.03

Variants of: B2
Assay: as above
Conditions: Homo sapiens

Abundance fitness of substitutions, site by site:
Q6: W -0.347; Y -0.243; A -0.269; V -0.347; E -0.306; S 0.026; G -0.384; C -0.212; P -0.161; L -0.239; H -0.359; F -0.606
D7: C -1.06; K -0.075; P -0.29; Y -0.003; M -0.037; Q 0.119; I -0.458; E 0.015; F -0.544; T 0.067; H -0.51; N -0.183; S 0.037; V -0.19; G 0; W -0.346; R -0.005; A -0.095
D4: H 0.304; C 0.071; W -0.173; I -0.089; S -0.127; A -0.066; K 0.23; Q 0.114; L -0.003; N -0.114; T -0.168; Y 0.004; M 0.299; F -0.031; G 0.008; E 0.1
Y8: E -0.109; T 0.221; A -0.052; W -0.107; M 0.011; N -0.13; F 0.471; R 0.155; V -0.124; P 0.033; I -0.099; C -0.222; D -0.269; H 0.481; L 0.031; Q 0.427; G -0.291
E10: R -0.022; H -0.383; L 0; F -0.015; V -0.197; T -0.093; C -0.26; A -0.155; K -0.063; P -0.157; I 0.204; S 0.035; W 0.015; Q -0.358; N -0.182; Y 0.133
C9: V -1.01; M -0.562; H -0.739; A -0.929; L -0.717; S -0.676; F -1.09; D -0.777; P -0.712; R -0.678; I -0.868; E -0.943; Q -0.845; G -0.825; Y -1.02; T -0.791
H5: Q -0.111; S 0.224; M 0.41; W -0.23; P 0.19; I 0.092; K -0.044; N 0.12; A 0.283; C -0.083; R 0.193; G 0.158; D -0.801; T 0.349; V 0.208; F -0.059
Y1: C 0.19; F 0.069; R 0.048; S 0.108; V 0.348; K 0.593; A 0.534; N -0.028; W 0.441; M 0.64; D -0.863; L -0.316
V11: T 0.195; F 0.262; A -0.098; Y 0.008; W -0.019; I -0.064; L 0.134; C 0.063; H 0.155; N 0.223; S -0.085; M 0.223; P -0.257; K 0.127; G 0.129; Q -0.268
T3: R 0.024; Q -0.29; M 0.19; P -0.225; F 0.059; V 0.103; G 0.13; A -0.396; N -0.106; H -0.461; I 0.111; S 0.185; Y 0.034; K 0.205; L 0.141; C 0.124; D -0.022; W -0.182; E 0.074
Q13: A 0.206; C -0.045
C12: G -0.799; R -0.87; A -0.952; Y -1.07; L -0.962; D -0.944; K -0.775; I -0.342; S -0.977; M -0.643; V -0.887; W -0.948; T -0.46; H -0.948; N -0.605; F -0.529; E -0.683; Q -0.49
E2: H 0.347; Y 0.426; Q 0.654; C 0.484; G 0.102; L 0.386; K 0.077; A -0.143; P 0.263; W 0.297; I 0.176; D 0.033; S 0.425; T 0.349; R 0.406; M 0.621
